Two molecules from paper PMC12350152 (Nature Structural & Molecular Biology, 2025) can be followed below.

The target of assay [1] is recombinant full-length Pfs48/45 (ELISA antigen) (Plasmodium falciparum, strain not …, UniProt Q8I6T1). The assay is described as follows: ELISA. In general terms: An ELISA detects its analyte on a solid surface through an enzyme-linked reagent.
The target in assay [2] is T1, Pfs48/45 fragment containing D3 (ELISA antigen) (Plasmodium falciparum, strain not …).
T1 chain: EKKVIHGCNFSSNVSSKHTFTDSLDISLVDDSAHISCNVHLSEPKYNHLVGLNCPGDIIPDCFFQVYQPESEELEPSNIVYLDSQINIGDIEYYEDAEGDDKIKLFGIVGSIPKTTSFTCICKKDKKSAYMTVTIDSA
The assay is described as follows: ELISA.

In assay [3] the target is Pfs48/45 on live female Pf NF54 gametes (Plasmodium falciparum NF54 (3D7 is its …, UniProt Q8I6T1)). Kind of assay: flow cytometry on cells. (In general: A flow cytometer gives signals particle by particle.)
Chain of Pfs48/45 on live female Pf NF54 gametes (Plasmodium falciparum NF54 (Q8I6T1 28-426): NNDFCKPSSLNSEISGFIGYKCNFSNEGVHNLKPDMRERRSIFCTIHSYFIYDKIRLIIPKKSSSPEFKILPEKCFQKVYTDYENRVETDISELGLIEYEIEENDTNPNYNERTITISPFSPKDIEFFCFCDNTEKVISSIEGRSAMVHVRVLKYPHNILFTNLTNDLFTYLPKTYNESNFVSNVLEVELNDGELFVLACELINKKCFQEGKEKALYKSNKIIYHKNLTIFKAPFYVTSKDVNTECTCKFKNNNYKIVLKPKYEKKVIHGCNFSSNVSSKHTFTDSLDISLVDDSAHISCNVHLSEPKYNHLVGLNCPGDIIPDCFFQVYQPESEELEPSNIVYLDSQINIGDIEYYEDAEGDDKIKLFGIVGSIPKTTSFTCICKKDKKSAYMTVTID
Assay [4] concerns the target Pfs48/45 D1D2 (domains 1 and 2, aa 27–294), native sequence (Plasmodium falciparum (isolate 3D7)., UniProt Q8I6T1). Kind of assay: BLI. (In general: Biolayer interferometry detects binding as a change in optical thickness at a sensor tip.)

Chain of recombinant full-length Pfs48/45 (ELISA antigen) (Q8I6T1 28-426): as above
Chain of Pfs48/45 D1D2 (domains 1 and 2, aa 27–294), native sequence (Q8I6T1 27-294): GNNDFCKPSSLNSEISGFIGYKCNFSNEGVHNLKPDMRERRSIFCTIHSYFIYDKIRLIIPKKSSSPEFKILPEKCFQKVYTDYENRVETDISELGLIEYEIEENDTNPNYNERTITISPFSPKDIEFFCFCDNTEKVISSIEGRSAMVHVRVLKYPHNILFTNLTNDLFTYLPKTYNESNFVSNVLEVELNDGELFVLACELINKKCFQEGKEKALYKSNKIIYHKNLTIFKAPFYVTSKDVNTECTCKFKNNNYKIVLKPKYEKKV

B1: RUPA-44 mAb (IgG) (antibody, V domains shown)
VH: QLQLQESGPGLVKPSETLSLTCTVSGGSISRSPYYWGWIRQPPGKGLEWFGSIYNNGSTYYNPPLKSRLTISVDTSKNQFSLKLSSVTAADTAVYYCARHGGSTGMKVVVIAPPDYWGQGTLVTVSS
VL: DIQMTQSPATLSASVGDRVTITCRASQSISSWLAWYQQKPGEAPKLLIYKASSLQSGVPSRFSGSGSGTKFSLTISSLQPDDFATFYCQQYHSYPYTFGQGTKLEIK
For the molecule B1, the binding result in assay [1], in assay [2] and in assay [3] was “binds” each time.

B2: 10D8 Fab (Fab, V domains shown)
VH: EVMLVESGGDLVKPGGSLKVSCAASGFTFSNYAMSWVRQTPEKRLEWVATISSGASYTHYPDSVKGRFTISRDNAKNTLYLQMSSLRSEDTAMYYCGRQVNRHDRALDAMDYWGQGTSVTVSP
VL: not shown
B2: the binding result in assay [4] is “binds”.
